For the assay, the target named is fluorescein labelled MPT peptide (UniProt P35579). Briefly: fluorescence polarisation; S100A4 variant and fluorescein labelled MPT peptide. In general terms: Polarisation of emitted light reports the rotation of a fluorescent probe.

The Kd is the free concentration of one partner at which half of the binding sites on the other are occupied at equilibrium, for simple one-to-one binding. A high value points to weaker binding. “S100A4 C-terminal deletion mutant (residues 1-88, Δ13) (from UniProt P26447 1-88) (domain or fragment)” gave a Kd of 280 pM.

“wild-type S100A4 (from UniProt P26447 1-101) (natural protein)” gave an equilibrium dissociation constant (Kd) of 120 pM.
